Source: the DeepSol protein solubility set

assay: soluble on expression in E. coli; label from the status in PepcDB or PDB records

| Sequence | soluble on expression in E. coli |
| --- | --- |
| MSSVSEVNVDIKDFLMSINLEQYLLHFHESGFTTVKDCAAINDSLLQKIGISPTGHRRRILKQLQIILSKMQDIPIYANVHKTKKNDDPSKDYHVPSSDQNICIELSNSGSVQTSSPPQLETVRKNLEDSDASVERSQYPQSDDKLSPPKRDFPTAEEPHLNLGSLNDSLFGSDNIKIESLITKKTVDHTVEEQQTEKVKLITENLSKLPNADSECLSFVGCSTSGTNSGNGTNGLLEGSPPSPFFKFQGEMIVNDLYVPSSPILAPVRSRSKLVSRPSRSFLLRHRPVPEIPGSTKGVSGSYFRERRNVATSTEKSVAWQNSNEENSSSIFPYGETFLFQRLENSKKRSIKNEFLTQGEALKGEAATATNSFIIKSSIYDNRKEKISEDKVEDIWIPREDKNNFLIDTASESEYSTVEECFQSLRRKNSKASKSRTQKALILDSVNRHSYPLSSTSGNADSSAVSSQAISPYACFYGASAKKVKSGWLDKLSPQGKRMFQKRWVKFDGLSISYYNNEKEMYSKGIIPLSAISTVRVQGDNKFEVVTTQRTFVFRVEKEEERNDWISILLNALKSQSLTSQSQAVVTPEKCGYLELRGYKAKIFTVLSGNSVWLCKNEQDFKSGLGITIIPMNVANVKQVDRTVKQSFEIITPYRSFSFTAETEKEKQDWIEAVQQSIAETLSDYEVAEKIWFNESNRSCADCKAPDPDWASINLCVVICKKCAGQHRSLGPKDSKVRSLKMDASIWSNELIELFIVIGNKRANDFWAGNLQKDEELHMDSPVEKRKNFITQKYKEGKFRKTLLASLTKEELNKALCAAVVKPDVLETMALLFSGADVMCATGDPVHSTPYLLAKKAGQSLQMEFLYHNKFSDFPQHDIHSEGVLSQESSQSTFLCDFLYQAPSAASKLSSEKKLLEETNKKWCVLEGGFLSYYENDKSTTPNGTININEVICLAIHKEDFYLNTGPIFIFEIYLPSERVFLFGAETSQAQRKWTEAIAKHFVPLFAENLTEADYDLIGQLFYKDCHALDQWRKGWFAMDKSSLHFCLQMQEVQGDRMHLRRLQELTISTMVQNGEKLDVLLLVEKGRTLYIHGHTKLDFTVWHTAIEKAAGTDGNALQDQQLSKNDVPIIVNSCIAFVTQYGLGCKYIYQKNGDPLHISELLESFKKDARSFKLRAGKHQLEDVTAVLKSFLSDIDDALLTKELYPYWISALDTQDDKERIKKYGAFIRSLPGVNRATLAAIIEHLYRVQKCSEINHMNAHNLALVFSSCLFQTKGQTSEEVNVIEDLINNYVEIFEVIILYPALVKMVIMSLFANKYLCC | soluble |
| GSEQQDLDDLAQVILSAVTSNTDTSKSARAQALSTALASSLADLLISESSGSSYQTQISALTNILSDCFVTTTGSNNPAFVSRVQTLIAVLSQSSSNAISGATGGSAFAQSQAFQQSA | soluble |
| MLKLARPFIPPLSRNNAISSGIVLTSRRFQSSFTFLSNQSLLSKNQMKSKRKKGSKKAAYHRQPPEHEHTAPLIKQNKTITKKEHSDVRGSHLKKKRSDFSWLPRVPSTSHLKQSDMTTNVLYSGYRPLFINPNDPKLKEDTGSTLYEFAMKLEDLNEPLSPWISSATGLEFFSEWENIPSELLKNLKPFHPPKEKSMNTNELIHVSAKRNTLVDNKTSETLQRKMDEFSKRRGKGRKKSVVTLLQMKKKLEG | not soluble |
| MGSDKIHHHHHHMTYTPFFIHGEDRRSRWLITCDHATNTVPPEICGGDLGLAREDMERHIAYDVGAYEVSRLLGEMLAAPVIAANFSRLVIDPNRGEDDPTLLMKLYDGSIIPGNRHADAAERERRLNMCYRPYHDALARLAARPGVVLVSMHSFTRQLRGRAPRPWQIGVLHTADQRFSDPLIARLRGEADLCVGVNQPYTGVLPGDAIDTHCTAFGRPNALIELRNDLIGDPAGQHAWAERLAPLLQDALADSGL | not soluble |
| MGHHHHHHSHMATSRYEPVAEIGVGAYGTVYKARDPHSGHFVALKSVRVPNGGGGGGGLPISTVREVALLRRLEAFEHPNVVRLMDVCATSRTDREIKVTLVFEHVDQDLRTYLDKAPPPGLPAETIKDLMRQFLRGLDFLHANCIVHRDLKPENILVTSGGTVKLADFGLARIYSYQMALTPVVVTLWYRAPEVLLQSTYATPVDMWSVGCIFAEMFRRKPLFCGNSEADQLGKIFDLIGLPPEDDWPRDVSLPRGAFPPRGPRPVQSVVPEMEESGAQLLLEMLTFNPHKRISAFRALQHSYLHKDEGNPE | not soluble |
| MKCLVTGGNVKVLGKAVHSLSRIGDELYLEPLEDGLSLRTVNSSRSAYACFLFAPLFFQQYQAATPGQDLLRCKILMKSFLSVFRSLAMLEKTVEKCCISLNGRSSRLVVQLHCKFGVRKTHNLSFQDCESLQAVFDPASCPHMLRAPARVLGEAVLPFSPALAEVTLGIGRGRRVILRSYHEEEADSTAKAMVTEMCLGEEDFQQLQAQEGVAITFCLKEFRGLLSFAESANLNLSIHFDAPGRPAIFTIKDSLLDGHFVLATLSDTDSHSQDLGSPERHQPVPQLQAHSTPHPDDFANDDIDSYMIAMETTIGNEGSRVLPSISLSPGPQPPKSPGPHSEEEDEAEPSTVPGTPPPKKFRSLFFGSILAPVRSPQGPSPVLAEDSEGEGLEHHHHHH | not soluble |
| MTQRLKDKLAVITGGANGIGRAIAERFAVEGADIAIADLVPAPEAEAAIRNLGRRVLTVKCDVSQPGDVEAFGKQVISTFGRCDILVNNAGIYPLIPFDELTFEQWKKTFEINVDSGFLMAKAFVPGMKRNGWGRIINLTSTTYWLKIEAYTHYISTKAANIGFTRALASDLGKDGITVNAIAPSLVRTATTEASALSAMFDVLPNMLQAIPRLQVPLDLTGAAAFLASDDASFITGQTLAVDGGMVRH | soluble |
| MGSDKIHHHHHHMSNRHDADTPARLSSGIDGIDDILGGGLTPHRMYLVEGAPGTGKTTLALQFLLKGVEEGQGGLYITLSETRPELIAVAESHGWDISRFTILELLSDEGLDPQYEQTVLHPAEVELGETVRNVIQHVDELKPARIVLDSLSELRLLSQNPLRYRRQILALKRYFATRECTVLLLDDNSSDPGDVQLHSIAHGVISLDNLVHDYGGNRRRARVAKMRGIKFREGYHDFTLDTGGIHVYPRLVAAEHHADFSTEVVSTGTAGLDALLGGGLIPGTNALMIGPSGVGKTTTVVSCLIAALERGERCVYYVFDETLTTLMTRCATLGIYLAPHVESGLLTLRQIDPAEISPGEFASDVRRSVEKKGVRYVAIDSLNAYLQAMPGERYLLLQMHELLGYLNQQGIVTMLVLGQHGIIGEVQNDIDISYLSDVVVLFRYFEHHGEVLTAITAVKSRANAHERSIRQFRLGVNGVEVGDALRDFEGVLSGLPAYRGSTALLGATNRVIETPGK | not soluble |
| MTNMDNYCVIMGGGIGSRFWPFSRKTLPKQFLDFFGTGRSLLQQTFDRFQKVIPTENILIVTNAMYADLVKEQLPELDEKQILLEPARRNTAPCIAWAAYHIRALNPNANIVVAPSDHLILKEEEFRAAIIKGLEFVSHSEKLLTLGIKPNRPETGYGYIQIDEPTGDGFYKVKTFTEKPELELAKVFVESGEFYWNSGLFMWNVNTIIKAAEILLPELVSKLAPGKNIYATDKEKAFIEENFPACPNVSIDFGIMEKADNVYVSLGDFGWSDLGTWGSLYDLSERDREGNVTLKSHSLIYNGKDNMIVLPKGKLAVIDGLEGYLIAESDNVLLICRKDEEHSIRKYVNDAQMQLGDDFI | not soluble |
| MSLKILTIVVMSGNVISLNRPSANAAIRLGFTYEGRFRNHAIYKGRSRDTDWFSIIDSEWPVLKKRFENWLSPENFDEQGQQKRSLRDC | not soluble |
| MARNRLTESEMNEALRALDGWQKVDGREAITRSFKFKDFSTAFGFMAQAALYAEKLDHHPEWFNAYNRVDVTLATHSENGVTELDIKMARKMNAIAG | soluble |
| GSAMRSAQVYRWQIPMDAGVVLRDRRLKTRDGLYVCLREGEREGWGEISPLPGFSQETWEEAQSVLLAWVNNWLAGDCELPQMPSVAFGVSCALAELTDTLPQAANYRAAPLCNGDPDDLILKLADMPGEKVAKVKVGLYEAVRDGMVVNLLLEAIPDLHLRLDANRAWTPLKGQQFAKYVNPDYRDRIAFLEEPCKTRDDSRAFARETGIAIAWDESLREPDFAFVAEEGVRAVVIKPTLTGSLEKVREQVQAAHALGLTAVISSSIESSLGLTQLARIAAWLTPDTIPGLDTLDLMQAQQVRRWPGSTLPVVEVDALERLL | soluble |
| MLIVLSLGGSILAKNLDPDRFLKYANALRDISKKHTLLVVTGGGEAARDYIGAARAMGADEVTCDYIGIEITRLNARLLISALGHDAYPEIPSNYPEASKAMTSGKVVVMGGVTPGQTTDAVASILAEYLRADLLTIATSIDGVYSSDPNCDPCAVKYEKISPEKLINIVMAIEMKAGSKSPVDPVAAKIIERCKLDALVMDARNPDLLVEVICGEAAKKSPVSCGTWITAKKMAGDPLEHHHHHH | soluble |
| MNESIYTTPQSSKTPKSKSARYSSPYQVIDLNNESQEDLKTRLLEAENIIQDLRSERDALHESLVDKAGLNESVIIERSNKVSTQETRIYRRDVTLLEDDLKQKESQIRILQNRCLRLETEKQKMQDTISGYQEDLKENEIRIENLNSRLHKLEDELSAKTHEIFSIGEELKNKTMKLNEKNSQFQTKLAEISSENRNLERKVQKFREELIVKDQRSLEVHQDQENTQKVLKEVKQLSDRLDYLTPKRKDVSRIKERDDFLQFSAKIIEETMSELKLKNARLERELSEKEELVKVTKEELQELQKTVTQAMGDSEQATKYLHAENMKLTRQKADIRCDLLEARRNLKGFDEKREELEKQRDEALEDVRRITELKKNVEIELRSLKLLAEEREEQIDELKSRVAGYEVLRRDHEAVKNELAKAEEKLNKMGAHLVMADKQSSHFKTLKETAEGSRRRAIEQCNEMVARIRGLEASLENQRKVEQELEMVKAENVRQAKKIEFMKEEIQETHLDYREELSKLAKGGGSHEADSQRDSELRSAKKTIQEVKADNKKLQQILEEVRQNQSKVLEENVKLRKGMAEAIEKIEEFKRNWHSSREAGERLQLEAKENEEKVLKVEEELQEKRLEVLEKEELVNYLQSQINTKQTKQPKLSRRSTLMSTISEVDTSTYVREVEEVRALEEQREELQAYLAEKRKMADLQKSRSTANTTTLITSTTATEVSKSACELSYPPATMRHDIPHKWLEFRHYSVLSMKCSLCFVGITFFTKANKCSHCDVRVHASCAPRVNNTCGIPAQCATYYQDAQAVGGIGRMNGWLRVYRDDLPESTWTSLWAMMDSNHVKFYRDAGADNLENPYFTIDLNKEQWILRTGQEVAIPGDVMRNVLTIKLQTRSVHIVAPTPKSAERWAACLQNAQTRRMMKNSKPSSIAEYSCLLTLSLPNNLKIFKAHTIEDWILFATQTGLFFTSISQPRNPTRIAGPSSVTSLEVMSEINCVAMITNSNRQLALIPLDSLTLAMQSTHPSIRAEVLPEFGHVHTIRYHQQDGQRFLLVSDDTQLHIRKYNSTRDVFAHFAKLVVPEPVSFIESTPAGFIFASDTFYYVPLDHQSPSDVSARKLMPPRRSDYPVSAHAITANEILLAYQNHGIFVNLYGEQSRNQIIEWEKMPIEFAYTSPLLYIVHDDSIEIVQISKSSKETVLAEREVIACVNAHIVQSDGVLISVSSKDITEVHRFSATCRGTGTKRRGISPFNTLKRSKN | not soluble |
| MAAPGPALCLFDVDGTLTAPRQKITKEMDDFLQKLRQKIKIGVVGGSDFEKVQEQLGNDVVEKYDYVFPENGLVAYKDGKLLCRQNIQSHLGEALIQDLINYCLSYIAKIKLPKKRGTFIEFRNGMLNVSPIGRSCSQEERIEFYELDKKENIRQKFVADLRKEFAGKGLTFSIGGQISFDVFPDGWDKRYCLRHVENDGYKTIYFFGDKTMPGGNDHEIFTDPRTMGYSVTAPEDTRRICELLFS | soluble |
| MGHHHHHHSHMPADRSIWQESCPVSFSALKKWIFLPNSTKIKEKRSSFPVRGPLTFDGWYPRDHKPSAPPTNEEERRAAAVKYGLRPEDYQSMDKDDVIKFAGDYPDLGVITYDHKDPYEAWTDRQNRRNWGELVPIDMMRYRGDRLTFTGLEAEDYTTWNSIVMCLRVLVPMALLAWYFTNEHPNALRWKNPAMPKQYSYDFYRAYPFDDPRKYPIVNYSFDLE | not soluble |
